Measurements published in patent US20080305997A1 (UNIVERSITY OF NORTH CAROLINA AT CHARLOTTE, published 2008).

B1: P4, overlapping synthetic peptide of Salp15 (amino acids 31-50) (peptide)
peptide: SNHQKLALKLLKICKDSKSS
notes: Chemically synthesized (GenScript); coated on the plate
B2: P3, overlapping synthetic peptide of Salp15 (amino acids 21-40) (peptide)
peptide: NVQLRFPNYISNHQKLALKL
notes: as for B1
B3: P5, overlapping synthetic peptide of Salp15 (amino acids 41-60) (peptide)
peptide: LKICKDSKSSHNSLSSRSSD
notes: as for B1
B4: P7, overlapping synthetic peptide of Salp15 (amino acids 61-80) (peptide)
peptide: VINDKYVDFKNCTFLCKHGN
notes: as for B1
B5: P10, overlapping synthetic peptide of Salp15 (amino acids 91-110) (peptide)
peptide: DTPCGPNGQTCAEKNKCVGH
notes: as for B1
B6: P2, overlapping synthetic peptide of Salp15 (amino acids 11-30) (peptide)
peptide: STADKDTKKNNVQLRFPNYI
notes: as for B1
B7: P1, overlapping synthetic peptide of Salp15 (amino acids 1-20) (peptide)
peptide: NESGPTKADASTADKDTKKN
notes: as for B1
B8: P6, overlapping synthetic peptide of Salp15 (amino acids 51-70) (peptide)
peptide: HNSLSSRSSDVINDKYVDFK
notes: as for B1
B9: P9, overlapping synthetic peptide of Salp15 (amino acids 81-100) (peptide)
peptide: DVNVTLNLPEDTPCGPNGQT
notes: as for B1
B10: P11, C-terminal peptide of Salp15 (amino acids 95-114) (peptide)
peptide: GPNGQTCAEKNKCVGHIPGC
notes: Chemically synthesized (GenScript); also called P11k

Each binder was assayed against T1, sCD4-HRP (Research Diagnostics Inc.) (UniProt P01730 26-396, limits assumed) (assay: microtiter assay, plate-bound peptide, sCD4-HRP).
T1 construct: extracellular domain
B1: no binding (tested: 0.5 µg peptide coated).
B2: no binding (tested: 0.5 µg peptide coated).
B3: no binding (tested: 0.5 µg peptide coated).
B4: no binding (tested: 0.5 µg peptide coated).
B5: no binding (tested: 0.5 µg peptide coated).
B6: no binding (tested: 0.5 µg peptide coated).
NCTFLCKHGNDVNVTLNLPE (Chemically synthesized (GenScript)) [P8, overlapping synthetic peptide of Salp15 (amino acids 71-90)]: no binding (tested: 0.5 µg peptide coated).
B7: no binding (tested: 0.5 µg peptide coated).
B8: no binding (tested: 0.5 µg peptide coated).
B9: no binding (tested: 0.5 µg peptide coated).

Each binder was assayed against T1, sCD4-HRP (Research Diagnostics Inc.) (assay: microtiter competition; free P11 added to sCD4-HRP on plate-bound P11).
Experimental: Purified sCD4 was coated overnight at 4° C. at the indicated concentrations in 0.1M sodium carbonate buffer (pH 9.5) in 96 well plates. Equimolar amounts of lysozyme were used as a non-specific control. […] The reaction was stopped by adding TMB stop solution (KPL). […] The wells were washed and blocked prior to incubation with sCD4-HRP (Research Diagnostics Inc., Flanders, N.J., U.S.A.).
In the case of B10, the IC50 is reported as 1250 nM.

Each binder was assayed against T1, sCD4-HRP (Research Diagnostics Inc.) (assay: microtiter assay, increasing concentrations of plate-bound P11, sCD4-HRP, non-linear curve fit).
In the case of B10, the Kd is reported as 50 nM.
